According to article PMC8872791, “MadR mediates acyl CoA-dependent regulation of mycolic acid desaturation in mycobacteria” (Proceedings of the National Academy of Sciences of the …, 2022):

T1: MadR (Mycobacterium tuberculosis H37Rv, UniProt P9WMD9 1-234)
T1 sequence: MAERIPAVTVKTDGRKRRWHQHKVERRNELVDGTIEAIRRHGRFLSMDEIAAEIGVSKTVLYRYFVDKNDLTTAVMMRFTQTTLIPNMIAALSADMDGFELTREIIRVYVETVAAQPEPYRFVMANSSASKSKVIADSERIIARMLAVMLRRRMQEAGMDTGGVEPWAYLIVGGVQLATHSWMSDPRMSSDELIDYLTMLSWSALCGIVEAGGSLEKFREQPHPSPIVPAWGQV

B1: desA1 control (substituted motif) (dsDNA)
DNA 1: CCGTTCGAGACGACTAATGAGGTGCAACAATATACGATCACCATCGGTA
DNA 2: TACCGATGGTGATCGTATATTGTTGCACCTCATTAGTCGTCTCGAACGG
B2: desA2 control (substituted motif) (dsDNA)
DNA 1: TTCGAGAACGATGCAAATACGAAGGTATACTACCTCATGGTAATCAAACC
DNA 2: GGTTTGATTACCATGAGGTAGTATACCTTCGTATTTGCATCGTTCTCGAA

Target: T1, MadR
Test: EMSA
Details: protein: recombinant; tags: His-tag implied (pET28a, cobalt IMAC); chain copies: 2; blunt

Binder | binding result
B1 | no binding
B2 | no binding
